Among the data in patent US20250243261A1 are Wuhan pseudotyped lentivirus IC50 and Kd values, retold here.

Assay [1] deals with SARS-CoV-2 Wuhan Spike on pseudotyped lentivirus (SARS-CoV-2 Wuhan-Hu-1) (UniProt P0DTC2). Nature of the assay: cell-based or functional assay.
Assay [2] concerns the target HA H4 Hubei, A/swine/Hubei/06/2009(H4N1) (Influenza A virus). Nature of the assay: BLI, Fab.
The target in assay [3] is HA H7 HK17, A/Hong Kong/125/2017(H7N9) (Influenza A virus). Nature of the assay: BLI, Fab. In general terms: BLI is a label-free optical method that tracks binding on a fibre tip over time.

Chain of LY-1404 WT IgG (antibody) (VH): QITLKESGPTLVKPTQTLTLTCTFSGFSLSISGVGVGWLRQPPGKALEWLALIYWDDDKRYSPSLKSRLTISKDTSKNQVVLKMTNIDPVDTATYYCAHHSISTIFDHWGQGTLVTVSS
Chain of LY-1404 WT IgG (antibody) (VL): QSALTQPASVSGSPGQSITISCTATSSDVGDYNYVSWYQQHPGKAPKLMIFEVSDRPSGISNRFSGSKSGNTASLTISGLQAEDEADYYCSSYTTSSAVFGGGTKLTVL

LY-1404 WT IgG (antibody) displayed a Wuhan pseudotyped lentivirus IC50 in assay [1] of 3.1 µg/mL. The term Kd denotes the equilibrium constant for the complex coming apart. Higher therefore signals a looser complex. For MEDI8852 WT Fab, the dissociation constant Kd in assay [2] turned out to be 0.56 nM; in assay [3], 0.2 nM.
